Measured values: the DeepSol protein solubility set

test: soluble on expression in E. coli; label from the status in PepcDB or PDB records

Row | Sequence | soluble on expression in E. coli
1 | MARIKLIDETTDLSQVRRPIGWDLEVNGVPYDVYRIDGYNHTLGGKFSENCYWACPAGKKPTYKNLIEFNGDAPTWGIVFDRSNYTKTKWDETSVECNGICWITRNGKKFYSIPARYMDYGLAKAQYILVKLLEECPLWLSERNWKEKAIGRKIWYENQPAKIIRINEENELWIEPDGIPVFKAPAHWDHDDYSDYENGLRVDLLSPNIYWFRD | not soluble
2 | IIEEEQQSLTGRLNIAVLPTIAPYLLPRVFPIWKKELAGLEIHVSEMQTSRCLASLLSGEIDMAIIASKAETEGLEDDLLYYEEFLGYVSRCEPLFEQDVIRTTEVNPHRLWLLDEGHCFRDQLVRFCQMKGLHERQTAYSGGSMEAFMRLVESGQGITFIPQLTVEQLSPSQKELVRPFGMPRPVREVRLAVRQDYSRRKLREQLIGLLRSAVPSDMHKLQTGQHLAHHHH | soluble
3 | MGSDKIHHHHHHVPNEKLSNRDRLLAVRDIFEQYSDEEQTLTLEELSTELSKRGLIEKLSRKSLKEDIAALAKSGFDIHAEETKNGLAIPYHLVSRPFEYHHLRLLVDAIASAKFISESETEVLVRNIHTLTSKRLAKTLTPVIHTVKKPKGVIPFSIDTIQKAIIEQDIISFQYQGKFNERTRKFELRRDGDYYLVTPAHLIVDNGNYYLIGRDERVEEIRTYRVDRIVNCSVFEPAQTPVEVEATYLSSMFNMYGGEQEQLTLKFHESVMPTVVDRFGTDIRCRRLEGDWFEVKVGALFSQGFMMWLIQFAEQAEILEPALCREAFKNKVLELAKVYQAGVPVSPQMNESV | not soluble
4 | MHHHHHHSSGVDLGTENLYFQSMKICSIALVGKYTKLRDCYASVFKALEHSALAINHKLNLMYIDSIDLEKITETEDPVKFHEAWQKLCKADGILVPGGFGIRGTLGKLQAISWARTKKIPFLGVCLGMQLAVIEFARNCLNLKDADSTEFRPNAPVPLVIDMPEHNPGNLGGTMRLGIRRTVFKTENSILRKLYGDVPFIEERHRHRFEVNPNLIKQFEQNDLSFVGQDVDGDRMEIIELANHPYFVGVQFHPEFSSRPMKPSPPYLGLLLAATGNLNAYLQQGCKLS | soluble
5 | MGGSHHHHHHGMASALGADGFVPLGTLLQLPQFRGFSAEDVQRVVDTNRKQRFALQLGDPSTGLLIRANQGHSLQVPKLELMPLETPQALPPMLVHGTFWKHWPSILLKGLSCQGRTHIHLAPGLPGDPGIISGMRSHCEIAVFIDGPLALADGIPFFRSANGVILTPGNTDGFLLPKYFKEALQLRPTRKPLSLAGDEETECQSSPKHSSRERRRIQQ | not soluble
6 | MTSNFREYLFAPDHPRLAELRELDAYAYRTVARRPGTFTGDLVAGWTPLYKNEFRGVTEDGTLREDVHCLEPARAGEAAPVPEMVAAAADLLAGLDDESRERIRYRVDAPEWQTWANPEFMQFDTGIRLEFQSEDVRRKALRLMASSLSPQGYELARNMMLINGFLGEVVGLPGILNEFSYNMAIYGTPHETRPWGWQVFGHHLAVNCFVVDGRMVISPLFLGAEPNEIDEGEHAGVTSFGTRIELGLALMAELTPEQRCAATVYEQMVDPAMPPGRVHPGDERHLAGAFQDNRQIPFEGVRVADLSCRAQELVLEIVEQFVALLPDGPRAARMREVRKMLSQTWFSWIGGHRPGDVFYYRVQSPVIIAELDHHCGVFLDYDTPKPFHIHTVVRTPHGNDYGRAYLRQWEQGHRLEHHHHHH | soluble
7 | VRQLSQPLKRLVVAARQFGQGRSVRLPLGPETPSEMAEVYRAFNQMAEDIEQGGRERELMLAGVSHDLRTPLTRLRLSLELLPESEREMVEDMIRDIEDMDAILDQFLAFIRDGRDEPVEEGDLTDLVREVVAPFNQTREQVRMALQPVPAMPLRRVSMKRLLGNLIDNALNHGGGSVEVASYVAGESAAPYVVLSVLDRGQGIDPAEVDSIFNPFIRGDKARGGKGTGLGLAIVKRIAAQHGGSVELRNRDGGGLEARVCLPLGLLLPRGAA | not soluble
8 | MPLALDDGDVNLSELRAFDLLGRCETGSIVNTVSLSSTGNYLAAGGFDHKVYYYDSRGTQLWNYTTGDIVYTVSISSDGSRIAAGSNDRKVYFFNREGELLWSRKTGGNINSVAVSSEGLYIATGGEDGKVYFLDKDGKLLWSFNSGDAVRSVAISRDGDYVLEHHHHHH | not soluble
9 | MAHHHHHHMTGSDEEFEIGDILDIKKKKNGFIYLVNWKGYSDDENTWEPESNLLHLTTFKKKMELLKSAYLNKVDTTQNDGNLLKNHLTSPSSLQEETGTTNITKTKGRNPLISKKKGNKKGVTNKLEAKKLLSTNSDNSQKMSDDEYNESIKQETIENPHDSSLLNVEDVYSVRIKNRKMEFLASLKNASPQWVEESNIRRTGHLNIKVNDFKKYIRRKKTSKGNRIVIKNLHNVGDELYISVIHNINNKEIHSLYPSKVIEYIYPQELLNFLLSRLRYRTA | soluble
10 | SNAYRGPEAFLKLPKDLKDREALQDIMQDIGNSDDILAAVVLSATPGAVEAFRKNGETIRITGDGLKAAHRFLSNDPKIGEKRIRPGALIRVKKTEKGSWQIVQLP | soluble
11 | MAHHHHHHMQNLSPACTFNKNEEKIKCPSSTKLGCSDGTKIIQHEINERNMMPEIPNVSLTDENDFTFNKKRHVSSIPKNNNEYWVYPSSQQFYNSLIRKNKDIDKNYIDAVVSVHNEVNEESWKQILKYEHMHKRSCTDVTLHRFLGKFDDLSIKARFRSIFSRGKKKKNNNNNKKSVKGFFFMGRPFDRHDWYVNRCGTQVKYILDYYNDESINDDKNIYIDVRPAMNSFSNVWDRLRYPFYEFYFKYVKKDELFK | not soluble
12 | ARKCSLTGKWTNNLGSIMTIRAVNSRGEFTGTYLTAVADNPGNITLSPLLGIQHKRASQPTFGFTVHWNFSESTTVFTGQCFIDRNGKEVLKTMWLLRSSVNDISYDWIATRVGYNNFTRLSTVEE | soluble
13 | MSLEVEVYRDPLSGFKDNKKSAPVKLNDEQQFALNQITAAIDKRKAETFLLEGITGSGKTEVYLHAISKALEQGRNALMLVPEISLTPQMVRQVKSRFGQAVAVLHSALSEGEKYDEWRRIRRGETRVVVGARSAVFAPLDNIGLIVIDEEHESSYKQETDPRYNARDVAIWRSKYHHCPLVLGSATPSLGSRARAQKNVYKLLRLTKRANNKKLPKVNLIDLKHVQFAGGQFDLSVNLVDAIKKRLDNKEQVILMLNRRGFANFMLCRECGFVLKCPNCDVSLNLHKDTNSMQCHYCGHTERVPSRCPNCQSSKIRFLGTGTQKVQEELEELLPGARILRMDVDTTRKKGSYKRILDSFGNHEADILLGTQMIAKGLDFPNVTLVGVINADTGLWLSDYNASEKTFELLTQVAGRAGRANKEGEVLIQTYNPEHYAIQLAQTQNYERFYGYEMNVRHAGNYPPYFFTVLISIAAKKEQNAAREAFRIKRYLSQHLHEEMIILGPTPSAISRVKNQYYYQILVKYKKEPNIKELLHHIQDSAQEAKKYGLNVFIDNEPEKIMEGHHHHHH | not soluble
14 | RELLMMTPSKELCQVVGNDVLEIEKVSDHQLKLAGITKVGQELRVNIDLHVDDDMIELDTLEQTRKQLTTRLSKHRFKLQLNLNVANC | not soluble
15 | MSLKEFYIGDQFYLDGEPFKILSGAIHYFRVHPDDWYHSLYNLKALGFNTVETYVPWNMHEPRKGEFCYEGILDIERFLKLAQELGLYAIVRPSPYICAEWEWGGLPAWLMKEELRVRSSDSVYLQHLDEYYVSLIPKLAKLQLAQGGNVLMFQVENEYGSYGEEKAYLRAVAGLMRKHGLTAPLFTSDGSWRATLRAGTLIEDDVFVTGNFGSKARENFANMTAFFNEHQKNWPLMCMEFWDGWFNRWGDEIIRREPEEMVDSVMECIELGSLNLYMFHGGTNFGFMNGCSARGQIDLPQVTSYDYDAILDEAGNPTKKFYILQQRLKEVYPELEYAEPLVKEAKAFSDVSLHDKVSLFATLENVSDCVKGFYPKNMEELDQSTGYILYRTELERDKTEAERFRVVDARDRIQIYADGKFVATQYQTEIGDDVELDFKDDKLTLDILVENMGRVNYGHKLTAPTQSKGIGRGAMADLHFIGHWETYPLHLESVEDLDFSKGWEEGQAAFYRYQFELDELADTYLDMTGFGKGVVFVNNVNIGRFWEKGPILYLYIPKGYLKKGANEIVVFETEGKYREKIHFSQRPVIKDLEGHHHHHH | soluble
16 | VRSSSRTPSDMPVAHVVANPQAEGQLQWKNAGANALLANGVELRDNQLVVPSEGLYLIYSQVLFSGQGCPSTHVLLTHTISRIAVSYQTPVNLLSAIRSPCQRETPEGAEANPWYEPIYLGGVFQLEPGDRLSAEINRPDYLDFASTGQVYFGIIAL | soluble
17 | MGSDKIHHHHHHDSFLDEKMYSSYGPEVSDVNAKLVGLHRQYAAIWGMSSQQGFVGCWQVGTDVGAPGDTQGVEVPFYRYQELNAENAGVSFLWEKLYELINSANQIIASQAEGGDAAATAEAMFFRAYAYNMLVTLWGDVPLVTESTSIPRTDYTRNAVAEVDGVIDSDLVYAMSNLPVVGAAKNESRINQDMARQLAGEAYLRMGMRDASYFKKAEDAVTPIITGGKYELISARYGKYAAEPGDYYHDMFRWGNQRRSQGNMEAIWTFEMEYNRDVNGGTIDNPQQRRNWVPAFHKLDGMVNADSIGGRGNGRLRISNFVKYGLYEKGDIRNSNYNIRRVMWYNKPGFSKEVGIDAKGFLVDKDKGIRNVTLKTGDQVIPHEGDSLNVFYPHPTKWGAYDETDDFGYAVVKDWPVMRLGETYLLRAEARFRQGNTQGAADDINVLRDRAFKDYRAVAPGAGKVTADQIDIDFILDERARELISEENRRMTLVRTNTLAERIKLNGDMEPAAPSNKVITGFDANIHTLLPIPLTEIQLNKDGDLKQNPGY | not soluble
18 | MMTQTLLIELLTEELPPKALNNLGNHFAASVAEGLEKAQLVDGAAEFTAYASPRRLAVQVKNVKAVQADQKIVKKGPAVANAMKDGAPTKALEGFARGAGAKIEDLTIVHDGKQDVYAYEYVQIGKPLGGLLEDIINQAVKKLPIPKVMRWGSSTFTFVRPVHGLVVLHGGDIVNVSVLGLQSGNKTLGHRFLSDGEITIENADSYAAQMREQGKVVASFAERKAAIQTVLEGQARRLNATAAADEALLDEVTALVEWPVVLEAGFEEHFLAVPQECLILTMQQNQKYFPLLDQNGKLMNRFLLVSNLQTEDPSHIIQGNERVLRARLSDAEFFYKQDQKATLESRLPKLTNVVYHNKIGSQAERIERLQSIAAHIAKALGADAAAAERAARLAKADLVTEMVGEFPELQGTMGKYYARLDGETEEITEAVEQHYQPRFAGDNLPEGKIAAAVALADKLETLVGIWGIGLIPTGDKDPYALRRAALGILRMLMQYGLDVNELIQTAFNSFPQGLLNEKTPSETADFMQARLAVLLQNDYPQDIVAAVLAKQPRRLDDLTAKLQAVAAFKQLPEAAALAAANKRVQNLLKKADAELGAVNESLLQQDEEKALFAAAQGLQPKIAAAVAEGNFQTALSELASVKPQVDAFFDGVMVMAEDAAVKQNRLNLLNRLAEQMNAVADIALLGE | not soluble
19 | MGSSHHHHHHSSENLYFQGHMSSRAETPRVPFLDLKAAYEELRAETDAAIARVLDSGRYLLGPELEGFEAEFAAYCETDHAVGVNSGMDALQLALRGLGIGPGDEVIVPSHTYIASWLAVSATGATPVPVEPHEDHPTLDPLLVEKAITPRTRALLPVHLYGHPADMDALRELADRHGLHIVEDAAQAHGARYRGRRIGAGSSVAAFSFYPGKNLGCFGDGGAVVTGDPELAERLRMLRNYGSRQKYSHETKGTNSRLDEMQAAVLRIRLAHLDSWNGRRSALAAEYLSGLAGLPGIGLPVTAPDTDPVWHLFTVRTERRDELRSHLDARGIDTLTHYPVPVHLSPAYAGEAPPEGSLPRAESFARQVLSLPIGPHLERPQALRVIDAVREWAERVDQA | soluble
